167 variants from the RNAGym collection of RNA variant scans (doi:10.1073/pnas.2313332121) can be followed below.

B1: TPR t1 (parent)
chain: GACCAAUCUGCCCUCAGAGCUCGAGAACAUCUUCGGAUGCAGAGGAGGCAGGCUUCGGUGGCGCGAUAGCGCCAACGUCCUCAACCUCCAAUGCAUCCCACCACAUGAUGAUGCCUGAAGAGCCUUGGUUUUUUG

Variants of B1 are the subject of the series. Put plainly: polymerase ribozyme fitness, log enrichment relative to wild type (log ratio); higher = more active; in vitro selection for triplet polymerase activity. The essentials: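 A single round of triplicate in vitro selection, including frozen incubation at −7 °C, was applied to PCR-built, transcribed mutant libraries of each subunit of a heterodimeric triplet polymerase ribozyme. Illumina sequencing of input and output libraries retained genotypes with ≥10 input reads and ≥1 read per output. Fitness is the base-2 logarithm of genotype enrichment divided by wild-type enrichment, from inverse-variance-weighted replicate averages.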
For A2C C3G G52U G60A U129A, the “polymerase ribozyme fitness (log ratio)” value was -5.23.
Then C8A U14A G110A, with -1.09; and G63C C72U G107A C124U, with -6.17; and C3U G113U, with -2.47.
With A2U A6G C12U A24G C56A C97U the figure was -3.05; with A37C G71C, -1.27; with G77U G122A U130G, -0.666.
With G39A G61U the figure was -0.116.
On to A43C C123A, for which the “polymerase ribozyme fitness (log ratio)” value is -2.65.
Then G42A C53U C64U U106A A119G, with -1.87; and C22G C101A, with -3.82.
Then G51A C62U G113A, with -3.5; and A26G U38A G39U, with -4.5; and U59A C72A U109A, with -7.12.
Then C56A A66G A75G, with -0.927; and C28U C115U, with -3.6; and A5G G36A C53G C73U C80A C82G, with -1.5.
On to C3G A46U C72A G113C, for which the “polymerase ribozyme fitness (log ratio)” value is -3.77.
For C62A U78A A91U A111C, the “polymerase ribozyme fitness (log ratio)” value is -4.78.
Take U7A C53U C70U: the “polymerase ribozyme fitness (log ratio)” value is -0.899.
Regarding U38G G52A C62U C114A, the “polymerase ribozyme fitness (log ratio)” value was -3.2.
Then C12A G120C A121U, with 1.87; and A84U C123A, with -0.143.
Then U9G C31U, with -4.02; and U81G G127C, with -4.77.
Then A6C, with -0.236; and A2G U7A C12A G39A C82A G122A, with -0.0716.
In the case of G47C C115A, the “polymerase ribozyme fitness (log ratio)” value is -2.22.
Consider U21A U130A, for which the “polymerase ribozyme fitness (log ratio)” value was -0.5.
Then C15U C101U, with -1.84; and C15U C101A, with -2.35.
With G69C U92G G120C the figure was -3.22.
As to C70U A121C, the “polymerase ribozyme fitness (log ratio)” value came to 1.13.
Turning to C99U A121G, the “polymerase ribozyme fitness (log ratio)” value was -0.804.
With C11U A100C the figure was -1.31; with C8G C102A, -1.02; with G63U C114A, -3.04.
Take U9G A46U A91C G117A: the “polymerase ribozyme fitness (log ratio)” value was -1.93.
As to G25U G35A A41U U112G, the “polymerase ribozyme fitness (log ratio)” value was -7.04.
With C31G C34U G69U U78C C86U C101A G113U the figure was -7.18; with G44A A119U, -0.987; with C89G U126A, -2.85.
Then G44A G69U U81A, with -0.353; and U38A C101U G117C, with -4.18.
With U14A C49G the figure was -2.67; with A46U A66C, -2.07; with G42U G48U, -3.89.
For the variant C62U G93A, the “polymerase ribozyme fitness (log ratio)” value was -0.42.
Then C49A A50C C56A C79A U132A, with -3.18; and G60A A90C, with -0.936.
With G36A C56A the figure was -1.03.
Take A24G G113A: the “polymerase ribozyme fitness (log ratio)” value was -3.26.
Then C34G G69U, with -2.21; and A16U C20A C64U U87C U130C, with -4.77; and G61A C88A C114G U116C G122A, with -5.26.
In the case of G10U G17A C56A C89G G117A, the “polymerase ribozyme fitness (log ratio)” value was -3.05.
With G48C G52U G60A U109A G110U the figure was -6.29.
As to C70G A100U G117A A118C, the “polymerase ribozyme fitness (log ratio)” value is -6.05.
Then C8G C22G G36A C85U U112A, with -2.18; and A2U G58C C72G C88U, with -4.39; and A2C C3G G71C U129A, with -4.77.
Then U92A U131G, with -2.59; and G71U G113U, with -1.67; and A26G C49U C64U U87A, with -3.25.
Then U14C G51U C104U, with -4.54; and A50U G117C, with -2.96.
Turning to C12U G42U G77U G117U U126C, the “polymerase ribozyme fitness (log ratio)” value was -1.93.
Then C3U G45U C72G, with -2.05; and C4U C49U, with -0.875; and C4G C72A C86U U112C G122A G135C, with -0.311.
With G42A G117U, the “polymerase ribozyme fitness (log ratio)” value is -3.37.
With C49A C56U G120C U131G the figure was 1.43; with C4U C12G G17C G48A U54C C104A C115G, -2.54.
For G44C C56U C88U C101U G110U, the “polymerase ribozyme fitness (log ratio)” value is -3.38.
With A50U C76A C82U the figure was -1.67; with C70U U116A, -3.33; with C12A A29U G93U, -2.79.
With G61C C94U the figure was -1.25; with G52A C64A C101A C115A, -6.42; with C62U G110U, -1.14.
With C3G C49G, the “polymerase ribozyme fitness (log ratio)” value is -3.17.
Then C40G C56G C124G G127U, with -0.222.
With C86U A91G C98U the figure was -2.63.
Then A5U C11A C115G, with -6.5; and G45U A84C U96A G110A U131A, with -3.98.
Turning to G93A G110A U112A, the “polymerase ribozyme fitness (log ratio)” value was -2.76.
Then C76U C86U A91U, with -3.49; and C76U C82U C102U G117A, with -4.4.
For the variant C11U G47A G71C C86U, the “polymerase ribozyme fitness (log ratio)” value was -0.929.
With C124A G128U the figure was 0.625; with G45U G61U, -0.836.
Then U9A C56A C82A C85A, with -0.979; and A50U U125G G127C, with -3.43.
Regarding C13U G58A C73U, the “polymerase ribozyme fitness (log ratio)” value was -0.277.
Then C13G A46U, with -2.39; and C3A C4G G10A G61U A74C C123G, with -4.94.
With G51U G110A the figure was -5.3.
Then A37U A50U G52A, with -2.94.
Turning to C28A G61U G120A, the “polymerase ribozyme fitness (log ratio)” value is -3.5.
On to U59A G61U, for which the “polymerase ribozyme fitness (log ratio)” value was -0.465.
Then G60C C82A, with -0.574; and C72A G93A C98U U125G, with -1.8; and C11G A37U G71A C79A, with -1.37.
Then A6G G51A A75U C88G U92C, with -6.38; and C15U G122A, with -1.11.
Then A43G C82G C114U A119G U131A, with -2.01.
On to A105U U126A U129A U130G, for which the “polymerase ribozyme fitness (log ratio)” value is -6.
For C11G C12A G69C C104A, the “polymerase ribozyme fitness (log ratio)” value was -2.8.
With G42A C73A C104U G128A the figure was -3.49; with C3A A66C, -2.64.
Then G44A G52U, with -2.04; and C20U G36A G48C G113A, with 0.28.
For G45U C49A C88U A105U G128A, the “polymerase ribozyme fitness (log ratio)” value is -4.94.
Regarding C49A C70U, the “polymerase ribozyme fitness (log ratio)” value is -1.18.
Turning to U9A A27C U30C C56G A111U, the “polymerase ribozyme fitness (log ratio)” value was -4.95.
Regarding C64G U112A U126C, the “polymerase ribozyme fitness (log ratio)” value is -5.9.
As to C8A C53A, the “polymerase ribozyme fitness (log ratio)” value was 0.281.
Then G51U C97U U132A, with -2.51; and C12A G117A, with -1.29; and C22U C56G U78A, with -3.95.
With C20U U30A G39C C53U C56U G60C U92C G117U A119G the figure was -6.79; with G19C C53A G93A C123U, -2.59; with C115G G128U, -5.
Consider G77A G93A C124A, for which the “polymerase ribozyme fitness (log ratio)” value is 1.34.
With U9C C49A C62U C123U the figure was 1.78.
Then A27C A95U C114U, with -4.15; and A66U C73U A83U A100U C123U U125G, with -2.19; and G48U C104U, with -0.515.
With G51A G60A A84G G120U the figure was -2.9.
Turning to C98A A111U, the “polymerase ribozyme fitness (log ratio)” value is -5.78.
Then C73A G107C, with -4.16; and C8G C53U C89A, with -1.28.
With A16U U92A A111C the figure was -4.66; with C8U G39C, 0.0547.
With U32C G42A G69U the figure was -0.00577.
In the case of C28U G42C, the “polymerase ribozyme fitness (log ratio)” value is -3.36.
As for A16U A37C G71U A111U, the “polymerase ribozyme fitness (log ratio)” value was -5.61.
Then G36A G77C, with -1.72; and C12U A27G C40U C56U C86U C102U, with -3.62.
With A41U C123U the figure was -0.183; with G51U C94A U133G, -3.88; with G17U C72U C89A, -3.71.
Then C11A A18U U21A C56U, with -3.04.
Turning to C4U A66G C124G, the “polymerase ribozyme fitness (log ratio)” value was determined as 0.544.
With C53G G61A U106G G110C C124U the figure was -6.24; with C53G G61C A83G C88G C104A, -4.92.
With G42U G52C C97G C115U the figure was -6.37; with C13A A95C G120A, -0.521; with C12U U78A A108U G120C, -5.26.
With C34A G69U the figure was -0.154; with A5G C114G, -2.13; with U32C A41U G45C C115G, -5.44.
As to G71U C102U, the “polymerase ribozyme fitness (log ratio)” value is -1.69.
On to C13A A18G C49A C94U G117U, for which the “polymerase ribozyme fitness (log ratio)” value was -6.43.
With A29U G69U C123A, the “polymerase ribozyme fitness (log ratio)” value was -0.777.
Regarding G48A G135U, the “polymerase ribozyme fitness (log ratio)” value was -1.08.
With A29U G61C C72A the figure was -1.68.
With A84G G122A the figure was -1.44; with A90C C102U, -4.08; with C13A U32C U109G G120C, -5.75.
As for C3U G19A C53G U87A C124A, the “polymerase ribozyme fitness (log ratio)” value was -1.53.
Then A2U A91C G120U, with -3.98; and C4A G60A C102U A118U U132C, with -4.76.
Then U14A A37C C40A G69U, with -4.24.
With A27U C94U U106A G110U the figure was -2.09.
For G17U A41C G61A C89A, the “polymerase ribozyme fitness (log ratio)” value is -4.06.
Then G61U U78C C89G, with -1.23.
